Reference: paper PMC4270374 (Biochemistry, 2014)

B1: AfUGMY104A (UDP-galactopyranose mutase from Aspergillus fumigatus, Y104A on the K344A/K345A background) (enzyme)
chain: MTHPDISVDVLVIGAGPTGLGAAKRLNQIDGPSWMIVDSNETPGGLASTDVTPEGFLYDVGGHVIFSHYKYFDDCLDEALPKEDDWYTHQRISYVRCQGQWVPAPFQNNISMLPKEEQVKCIDGMIDAALEARVANTKPKTFDEWIVRMMGTGIADLFMRPYNFKVWAVPTTKMQCAWLGERVAAPNLKAVTTNVILGKTAGNWGPNATFRFPARGGTGGIWIAVANTLPKEKTRFGEKGKVTKVNANNKTVTLQDGTTIGYKKLVSTMAVDFLAEAMNDQELVGLTKQLFYSSTHVIGVGVRGSRPERIGDKCWLYFPEDNCPFYRATIFSNYSPYNQPEASAALPTMQLADGSRPQSTEAKEGPYWSIMLEVSESSMKPVNQETILADCIQGLVNTEMLKPTDEIVSTYHRRFDHGYPTPTLEREGALTQILPKLQDKDIWSRGRFGSWRYEVGNQDHSFMLGVEAVDNIVNGAVELTLNYPDFVNGRQNTERRLVDGAQVFAKSKAQ
B2: AfUGMN207A (UDP-galactopyranose mutase from Aspergillus fumigatus, N207A on the K344A/K345A background) (enzyme)
chain: MTHPDISVDVLVIGAGPTGLGAAKRLNQIDGPSWMIVDSNETPGGLASTDVTPEGFLYDVGGHVIFSHYKYFDDCLDEALPKEDDWYTHQRISYVRCQGQWVPYPFQNNISMLPKEEQVKCIDGMIDAALEARVANTKPKTFDEWIVRMMGTGIADLFMRPYNFKVWAVPTTKMQCAWLGERVAAPNLKAVTTNVILGKTAGNWGPAATFRFPARGGTGGIWIAVANTLPKEKTRFGEKGKVTKVNANNKTVTLQDGTTIGYKKLVSTMAVDFLAEAMNDQELVGLTKQLFYSSTHVIGVGVRGSRPERIGDKCWLYFPEDNCPFYRATIFSNYSPYNQPEASAALPTMQLADGSRPQSTEAKEGPYWSIMLEVSESSMKPVNQETILADCIQGLVNTEMLKPTDEIVSTYHRRFDHGYPTPTLEREGALTQILPKLQDKDIWSRGRFGSWRYEVGNQDHSFMLGVEAVDNIVNGAVELTLNYPDFVNGRQNTERRLVDGAQVFAKSKAQ
B3: AfUGMQ107A (UDP-galactopyranose mutase from Aspergillus fumigatus, Q107A on the K344A/K345A background) (enzyme)
chain: MTHPDISVDVLVIGAGPTGLGAAKRLNQIDGPSWMIVDSNETPGGLASTDVTPEGFLYDVGGHVIFSHYKYFDDCLDEALPKEDDWYTHQRISYVRCQGQWVPYPFANNISMLPKEEQVKCIDGMIDAALEARVANTKPKTFDEWIVRMMGTGIADLFMRPYNFKVWAVPTTKMQCAWLGERVAAPNLKAVTTNVILGKTAGNWGPNATFRFPARGGTGGIWIAVANTLPKEKTRFGEKGKVTKVNANNKTVTLQDGTTIGYKKLVSTMAVDFLAEAMNDQELVGLTKQLFYSSTHVIGVGVRGSRPERIGDKCWLYFPEDNCPFYRATIFSNYSPYNQPEASAALPTMQLADGSRPQSTEAKEGPYWSIMLEVSESSMKPVNQETILADCIQGLVNTEMLKPTDEIVSTYHRRFDHGYPTPTLEREGALTQILPKLQDKDIWSRGRFGSWRYEVGNQDHSFMLGVEAVDNIVNGAVELTLNYPDFVNGRQNTERRLVDGAQVFAKSKAQ
B4: AfUGMY317A (UDP-galactopyranose mutase from Aspergillus fumigatus, Y317A on the K344A/K345A background) (enzyme)
chain: MTHPDISVDVLVIGAGPTGLGAAKRLNQIDGPSWMIVDSNETPGGLASTDVTPEGFLYDVGGHVIFSHYKYFDDCLDEALPKEDDWYTHQRISYVRCQGQWVPYPFQNNISMLPKEEQVKCIDGMIDAALEARVANTKPKTFDEWIVRMMGTGIADLFMRPYNFKVWAVPTTKMQCAWLGERVAAPNLKAVTTNVILGKTAGNWGPNATFRFPARGGTGGIWIAVANTLPKEKTRFGEKGKVTKVNANNKTVTLQDGTTIGYKKLVSTMAVDFLAEAMNDQELVGLTKQLFYSSTHVIGVGVRGSRPERIGDKCWLAFPEDNCPFYRATIFSNYSPYNQPEASAALPTMQLADGSRPQSTEAKEGPYWSIMLEVSESSMKPVNQETILADCIQGLVNTEMLKPTDEIVSTYHRRFDHGYPTPTLEREGALTQILPKLQDKDIWSRGRFGSWRYEVGNQDHSFMLGVEAVDNIVNGAVELTLNYPDFVNGRQNTERRLVDGAQVFAKSKAQ

Biological target: the molecule itself
Experiment: crystal structure

| Protein | stoichiometry N |
| --- | --- |
| B1 | 4 |
| B2 | 4 |
| B3 | 4 |
| B4 | 4 |
